Assay results: paper PMC11552096 (Journal of molecular biology, 2020)
Residue numbers refer to the chain shown, from its start. Names and notes keep the numbering of the source.

B1: apo-SUN2_(500-717) (domain or fragment, human, UniProt Q9UH99 500-717, looked up)
chain: QGKSAREAAASLSLTLQKEGVIGVTEEQVHHIVKQALQRYSEDRIGLADYALESGGASVISTRCSETYETKTALLSLFGIPLWYHSQSPRVILQPDVHPGNCWAFQGPQGFAVVRLSARIRPTAVTLEHVPKALSPNSTISSAPKDFAIFGFDEDLQQEGTLLGKFTYDQDGEPIQTFHFQAPTMATYQVVELRILTNWGHPEYTCIYRFRVHGEPAH
B2: hsSUN2_(522-717), wild type, as crystallised with KASH4 (domain or fragment, human, UniProt Q9UH99 522-717, looked up)
chain: GVTEEQVHHIVKQALQRYSEDRIGLADYALESGGASVISTRCSETYETKTALLSLFGIPLWYHSQSPRVILQPDVHPGNCWAFQGPQGFAVVRLSARIRPTAVTLEHVPKALSPNSTISSAPKDFAIFGFDEDLQQEGTLLGKFTYDQDGEPIQTFHFQAPTMATYQVVELRILTNWGHPEYTCIYRFRVHGEPAH
B3: hsSUN2_(522-717) with 4 surface point mutations Q534D, T683G, M684R, A685G (domain or fragment, human, UniProt Q9UH99 522-717, looked up)
chain: B2 chain with Q13D, T162G, M163R, A164G

Molecular target: the molecule itself
Test: crystal structure

Stoichiometry N, 3:
B1
B2
B3
